The subject of this data set is MS2 coat protein. As to the kind of experiment: apparent KD of MS2 coat protein; designed switch direction (-1 OFF switch, 1 ON switch): -1; higher = weaker reporter binding. In short, it runs like this:
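Three titration conditions were used: no input, 200 uM small-molecule ligand, and an oligonucleotide input. In each, SNAP-549-labelled MS2 coat protein was raised from 0.7 or 1.5 nM, doubling, to 3 µM over designed RNA switches transcribed on Illumina chips by stalled E. coli RNA polymerase. Curve fits of normalised cluster fluorescence gave values whose per-design median over clusters is the apparent KD.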

[1] abbreviates: Eterna round: R95, input ligand: microRNA oligo, concentration not stated.
Where [2] appears, read: Eterna round: R95, input ligand: FMN 200 uM.
Where [3] appears, read: Eterna round: R95, input ligand: none.
[4] abbreviates: input ligand: microRNA oligo, concentration not stated.

In the case of “CUUACACAUGAGGAUCACCCAUGUGAGGAUAUGCGUACGUUGUCCGUAGGCGACGUGCGCAGAAGGCGCUUGGU [JL-ex1-3.19 Eli mod] (puzzle: Exclusion 1)”, under setting [1], the “apparent KD of MS2 coat protein” value is 55.3 nM.
As for “AGCUAGUCAGGAUAUUCUAAAAAUUACAUGAGGAUCACCCAUGUGAAUGGACAAGGGUGUGAAGAAGGGACUAGCG [Omei Ex5 A11] (Eterna round: R97, puzzle: Exclusion 5)”, the “apparent KD of MS2 coat protein” value reads like this: (input ligand: FMN 200 uM) 214 nM; (input ligand: none) 540 nM.
For “AGUACUAACACGGGAGUGUUAGUACAAUAAGCUUGUGAAACAUGAGGAUCACCCAUGUCCUCAUAAGCUCGUCUUAU [salish99_TOv2_r3_060] (puzzle: Sensor v3, turn-off variant 2)”, the “apparent KD of MS2 coat protein” value by setting is: under setting [2], 16.6 nM; under setting [1], 717 nM; under setting [3], 13.8 nM.
In the case of “CACCGUUACAGAGGAUAUGGUACAUGAGGAUCACCCAUGUAAUAAAUGAGAAUUUCGGAUGUAUUCCAGAAGGCUGUAAUCGGC [Ostricism 65 - Jieux - Exclusion NG 2] (Eterna round: R96, puzzle: Exclusion NG 2)”, the “apparent KD of MS2 coat protein” value by setting is: (input ligand: FMN 200 uM) 74.9 nM; under setting [4], 34.1 nM; (input ligand: none) 53.5 nM.
Take “AAGAAACAUGAGGAUCACCCAUGUGAGGAUAUGAGCAAGAAAAGAAAAGAAAGAAGAAUCAGAAGGCACAAAGG [salish99-ex1_r3_050] (puzzle: Exclusion 1)”: the “apparent KD of MS2 coat protein” value amounted to 6990 nM under setting [2], 1.1 nM under setting [1] and 49.3 nM under setting [3].
The corresponding values for “UUUUAACAUGAGGAUCACCCAUGUGAGGAUAUCGUAUUUUUUUUUUUUUUUUUUUUUUCGAGAAGGCACAUUUU [My solution] (puzzle: Exclusion 1)” are 1.24 nM, 6.56 nM and 16.5 nM.
Regarding “AUGUUGCGAGGAUAUAUAAGGGUAUAUUAAUAAGAUAUGGAACAUGAGGAUCACCCAUGUAGAAGGUGCAUAAC [JR_Ex2_Sub041] (Eterna round: R97, puzzle: Exclusion 2)”, the “apparent KD of MS2 coat protein” value is, setting by setting: (input ligand: FMN 200 uM) 45.6 nM; (input ligand: none) 33.6 nM.
The like results for “GCGCGAAGCAAGGAUAUCCCAGGGAGCUCCCUGGGAGAAGGUGCCACAUGAGGAUCACCCAUGUGGUGAUCCUG [eternacac ex6r4 sub16] (Eterna round: R97, puzzle: Exclusion 6)” were, in that order, 25.6 nM and 17.7 nM.
Consider “CGCUAGUCAGGAUAUACGAACAUGUCAAAAGACGUGAAGGGACAUGAGGAUCACCCAUGUAGAAGGGACUAGCU [salish99_ex2_r3_013] (puzzle: Exclusion 2)”, for which the “apparent KD of MS2 coat protein” value under setting [1] is 24.7 nM.
Regarding “UCACGGGACUGAGGAUAUACAUGAAUUAUUUUUGUAGAAGGCAGAAUGUUAGAUUAUACACUAUACAUGAGGAUCACCCAUGUU [JR_ExcNG1_Sub023] (Eterna round: R96, puzzle: Exclusion NG 1)”, the “apparent KD of MS2 coat protein” value runs as follows: (input ligand: FMN 200 uM) 16.1 nM; under setting [4], 20.5 nM; (input ligand: none) 19.7 nM.
The like results for “GUAAAUCAUGUAGGAUAUGCGUGGCGAAGCUAUGCAGAAGGACAUGAGGAUCACCCAUGUGCUUCCGUCUGAGAACAGACGGAA [Mat - Exclusion NG 1 - Mod of JL - D27] (Eterna round: R96, puzzle: Exclusion NG 1)” were, in that order, 105 nM, 187 nM and 341 nM.
As for “GGCACACAUGAGGAUCACCCAUGUGAGGAUAUGUGGCGAUCGUCGAUAGACGAUAGCCACAGAAGGCACAUGCC [Mat - Exclusion 1 - Eli Mod - D9] (Eterna round: R97, puzzle: Exclusion 1)”, the “apparent KD of MS2 coat protein” value reads like this: (input ligand: FMN 200 uM) 39.4 nM; (input ligand: none) 17.8 nM.
The corresponding values for “AUUAUGUUAGGAUAUUAUUUGCCCUACUAAGGCACGAGAAGUAAGAAGGGACAUGAGGAUCACCCAUGUUGGAG [Eternabot (L2) Solution 71] (Eterna round: R97, puzzle: Exclusion 4)” are 30.3 nM and 42.7 nM.
The corresponding values for “UCAGUGUUAGGAUAUCGAGCAAGUUGAAUAUUUGUCUGUAUCGAGAAGGGACAUGAGGAUCACCCAUGUGAGGC [Eternabot (L1) Solution 65] (Eterna round: R97, puzzle: Exclusion 4)” are 245 nM and 69.9 nM.
In the case of “AAGAAACAUGAGGAUCACCCAUGUGAGGAUAUGAAAAAGAAAAGAAAAGAAAGAAGAAUCAGAAGGCACAAAGA [salish99-ex1_r3_080] (puzzle: Exclusion 1)”, the “apparent KD of MS2 coat protein” value by setting is: under setting [2], 26.9 nM; under setting [1], 22.2 nM; under setting [3], 27.1 nM.
In the case of “CUUAGCCUAAAAUCACGCAAGCUUUUUACUUGUCUUAAGACAUGAGGAUCACCCAUGUCCGGGCUGAACUUAUGGAA [Zaortequ] (puzzle: Sensor v3, turn-off variant 2)”, the “apparent KD of MS2 coat protein” value is, setting by setting: under setting [2], 21.2 nM; under setting [1], 269 nM; under setting [3], 21.4 nM.
The corresponding values for “AGUACUAACACGAAAGUGUUAGUACAAUAAGCUUGUGUUACAUGAGGAUCACCCAUGUCCUCAUAAGCUCGUCUUAA [Mat - Sensor v3 - Turn-off var 2 - D49] (puzzle: Sensor v3, turn-off variant 2)” are 39.9 nM, 200 nM and 47.4 nM.
For “GAUCAUGCAGGAUAUACAGUAACCAUGAAAACAUGGUUGCUACAUGAGGAUCACCCAUGUAGAAGGGCAUGAUC [Omei Ex2 A2] (Eterna round: R97, puzzle: Exclusion 2)”, the “apparent KD of MS2 coat protein” value came out at 17.9 nM (input ligand: FMN 200 uM) and 16.9 nM (input ligand: none).
On to “GUCGUGUUAGGAUAUAACAACUACUAAUAAAUUAGUAGUUGUUAGAAGGAACAUGAGGAUCACCCAUGUAUGAC [-23.4, -22.9 kcal, A 36%] (Eterna round: R97, puzzle: Exclusion 4)”, for which the “apparent KD of MS2 coat protein” value (input ligand: FMN 200 uM) turned out to be 192 nM and the “apparent KD of MS2 coat protein” value (input ligand: none) came to 43.1 nM.
In the case of “CGCUACGAAGUCAGGAUAUCAGAACAAGAUAAAUAUGAGAAGGGACAUGAGGAUCACCCAUGUUCGGUGGUAGC [BmEX4 A.14] (Eterna round: R97, puzzle: Brourd's mod of Exclusion 4)”, the “apparent KD of MS2 coat protein” value (input ligand: FMN 200 uM) came to 24.6 nM and the “apparent KD of MS2 coat protein” value (input ligand: none) turned out to be 21.1 nM.
As to “CUCUUGGCAGGAUAUGCUCUCUUAGACAUGAGGAUCACCCAUGUGUUCAUUCUUUCUUUUGCAGAAGGGCCUUAAC [JR_E5_Sub046] (puzzle: Exclusion 5)”, under setting [1], the “apparent KD of MS2 coat protein” value was found to be 65.2 nM.
Regarding “GUCCUCAUGACGCCUAAACACAUGAGGAUCACCCAUGUACAGGCUUUUUGUCGUCUUAUAAUAAAACCGAGGAUGCG [Xelaanen] (puzzle: Sensor v3, turn-off variant 1)”, the “apparent KD of MS2 coat protein” value turned out to be 24.4 nM under setting [2], 319 nM under setting [1] and 29.8 nM under setting [3].
For “CAUUAUGUUGAGGAUAUGCGCCGGAAAACUGACGCAGAAGGCGACACAUGAGGAUCACCCAUGUCAGUUUUCGA [salish99_ex6_r004_426] (Eterna round: R97, puzzle: Exclusion 6)”, the “apparent KD of MS2 coat protein” value stood at 136 nM (input ligand: FMN 200 uM) and 273 nM (input ligand: none).
With “CCCAUGUUAGGAUAUCGGCUCCGCCGUUCCACAUGGCGCUCCGAGAAGGAACAUGAGGAUCACCCAUGUAAAGA [Raza] (puzzle: Exclusion 4)”, the “apparent KD of MS2 coat protein” value under setting [1] came to 34 nM.
As to “GUACUGACAGGAUAUACAUGAGGAUCACCCAUGUCCUUAGGCUGACAAAAGUCAGCAAGUAGAAGGGUCUGUAC [Omei Ex3 Model Bachelor's Dilema v3] (Eterna round: R97, puzzle: Exclusion 3)”, the “apparent KD of MS2 coat protein” value by setting is: (input ligand: FMN 200 uM) 1500 nM; (input ligand: none) 85.5 nM.
Turning to “UUAAAUCAUGUAGGAUAUGCGUGGCGAAGCUAUGCAGAAGGACAUGAGGAUCACCCAUGUGCUUGCGUCUGAGUACAGAUGCUA [Mat - Exclusion NG 1 - Mod of JL - D4] (Eterna round: R96, puzzle: Exclusion NG 1)”, the “apparent KD of MS2 coat protein” value (input ligand: FMN 200 uM) is 86.4 nM, the “apparent KD of MS2 coat protein” value under setting [4] stood at 74 nM and the “apparent KD of MS2 coat protein” value (input ligand: none) came out at 117 nM.
Consider “CCGAGGUGGCGGUCCUAUGACAUGAGGAUCACCCAUGUACCUCGCCACGAGCCUUUUGCUCAUCUUAUAAUUCUCGG [Bienve] (puzzle: Sensor v3, turn-off variant 1)”, for which the “apparent KD of MS2 coat protein” value by setting is: under setting [2], 17.4 nM; under setting [1], 20.6 nM; under setting [3], 17.2 nM.
As to “GGGUGACAUGAGGAUCACCCAUGUCAGGAUAUGAUACUAUGUACUUCGGUACAUAGUAUCAGAAGGGACAUAAA [Ex1-3: 15] (puzzle: Exclusion 1)”, the “apparent KD of MS2 coat protein” value under setting [1] was determined as 103 nM.
As for “ACAUGAGGAUCACCCAUGUGACAAUAAUGGCUGAUACAGAAACAGGAUAUUCGUGAAUAUCUAACGAAGAAGGGUUAUGACUGG [Deportation 68 - Jieux - Exclusion NG 3] (Eterna round: R96, puzzle: Exclusion NG 3)”, the “apparent KD of MS2 coat protein” value reads like this: (input ligand: FMN 200 uM) 36.4 nM; under setting [4], 41 nM; (input ligand: none) 44 nM.
Consider “UAAACCAGAGGAUAUGCGAAUAAAUAAAACUUUUUUUUUUAACAUGAGGAUCACCCAUGUAGAAGGCUGCAAAU [Ex2 #33] (Eterna round: R97, puzzle: Exclusion 2)”, for which the “apparent KD of MS2 coat protein” value is, setting by setting: (input ligand: FMN 200 uM) 30 nM; (input ligand: none) 38.9 nM.
The corresponding values for “CGCUGGACAGGAUAUGUUCUUGGGCACUUGAGGAUCACCCAAGUCAUCAAGAACUCAGGCACAGAAGGGUUUAUGG [salish99_ex5_r4_018] (Eterna round: R97, puzzle: Exclusion 5)” are 41.5 nM and 18.9 nM.

The record behind these values is the supplement of paper PMC9170038.
